Test results reported in patent US20150004174A1.

Legend:
[1] = target: cynomolgus monkey PCSK9, V5-6xHis tagged (cynomolgus monkey); assay: BIAcore SPR, antibody amine-coupled to CM5 chip, PCSK9 as analyte, pH 7.4
[2] = target: cynomolgus monkey PCSK9, V5-6xHis tagged (cynomolgus monkey); assay: BIAcore solution equilibrium binding assay, free PCSK9 measured on immobilized 21B12
[3] = target: cynomolgus monkey PCSK9, V5-6xHis tagged (cynomolgus monkey); assay: KinExA solution equilibrium

B1: 21B12 human IgG4 (from hybridoma) (antibody, V domains shown)
VH: QVQLVQSGAEVKKPGASVKVSCKASGYTLTSYGISWVRQAPGQGLEWMGWVSFYNGNTNYAQKLQGRGTMTTDPSTSTAYMELRSLRSDDTAVYYCARGYGMDVWGQGTTVTVSS
VL: QSALTQPASVSGSPGQSITISCTGTSSDVGGYNSVSWYQQHPGKAPKLMIYEVSNRPSGVSNRFSGSKSGNTASLTISGLQAEDEADYYCNSYTSTSMVFGGGTKLTVLQ
[1]
  Kd: 0.36 nM
[2]
  Kd: 0.011 nM

B2: 16F12 human IgG4 (antibody, V domains shown)
VH: QVHLVESGGGVVQPGRSLRLSCAASGFTFNSFGMHWVRQAPGKGLEWVALIWSDGSDEYYADSVKGRFTISRDNSKNTLYLQMNSLRAEDTAVYYCARAIAALYYYYGMDVWGQGTTVTVSS
VL: QSVLTQPPSVSAAPGQKVTISCSGSSSNIGNNFVSWYQQLPGTAPKLLIYDYNKRPSGIPDRFSGSKSGTSATLGITGLQTGDEADYYCGTWDSSLSAYVFGTGTRVTVLQ
[3]
  Kd: 0.016 nM
[1]
  Kd: 0.87 nM
